Data reported in publication PMC7273913.

Biological target: Xenopus laevis FANCD2, 6xHis-tagged (Xenopus laevis)

- in vitro FANCD2 monoubiquitination (Ube1, Ube2T, FANCL URD-RING, fluorescently labelled ubiquitin, 10 min at 30°C), against WT FANCL: 47 % of WT
B1: Human FANCL URD-RING (109–375) hydrophobic patch mutant L248A, F252A, L254A, I265A (domain or fragment)
chain: QFYSSLIEEIGTLGWDKLVYADTCFSTIKLKAEDASGREHLITLKLKAKYPAESPDYFVDFPVPFCASWTPQSSLISIYSQFLAAIESLKAFWDVMDEIDEKTWVLEPEKPPRSATARRIALGNNVSINIEVDPRHPTMAPECAFAGADHVVKPLGAKLSRNIHLWDPENSVLQNLKDVLEIDFPARAILEKSDFTMDCGICYAYQLDGTIPDQVCDNSQCGQPFHQICLYEWLRGLLTSRQSFNIIFGECPYCSKPITLKMSGRKH
